From publication PMC10397247
Values belong to the binder of their own block, whether it stands above or below them.

Legend:
[1] = molecular target: T1, O6-bA; assay: two-hybrid library CCNG1;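 also: natural log of median RNA to DNA barcode read ratio; higher means stronger binding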
T1 chain: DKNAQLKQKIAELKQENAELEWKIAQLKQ

[2] = molecular target: T2, 4H883-bA; assay: two-hybrid library CCNG1;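 also: natural log of median RNA to DNA barcode read ratio; higher means stronger binding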
T2 chain: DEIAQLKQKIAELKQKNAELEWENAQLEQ

[3] = molecular target: T3, 4H918-bA; assay: two-hybrid library CCNG1;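 also: natural log of median RNA to DNA barcode read ratio; higher means stronger binding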
T3 chain: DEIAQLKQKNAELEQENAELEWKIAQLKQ

[4] = molecular target: T4, 4H967-bA; assay: two-hybrid library CCNG1;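 also: natural log of median RNA to DNA barcode read ratio; higher means stronger binding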
T4 chain: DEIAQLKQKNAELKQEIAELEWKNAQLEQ

[5] = molecular target: T5, 4H72-bA; assay: two-hybrid library CCNG1;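 also: natural log of median RNA to DNA barcode read ratio; higher means stronger binding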
T5 chain: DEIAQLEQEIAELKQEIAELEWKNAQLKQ

[6] = molecular target: T6, 4H906-bN; assay: two-hybrid library CCNG1;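 also: natural log of median RNA to DNA barcode read ratio; higher means stronger binding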
T6 chain: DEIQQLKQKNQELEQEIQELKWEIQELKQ

[7] = molecular target: T7, 4H570-bA; assay: two-hybrid library CCNG1
T7 chain: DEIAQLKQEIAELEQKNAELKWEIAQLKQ

[8] = molecular target: T8, 4H953-bA; assay: two-hybrid library CCNG1
T8 chain: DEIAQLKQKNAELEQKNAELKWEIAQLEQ

[9] = molecular target: T9, 4H607-bA; assay: two-hybrid library CCNG1
T9 chain: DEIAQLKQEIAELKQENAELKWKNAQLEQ

[10] = molecular target: T10, 4H797-bA; assay: two-hybrid library CCNG1
T10 chain: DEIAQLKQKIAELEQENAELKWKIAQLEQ

[11] = molecular target: T11, 4H568-bA; assay: two-hybrid library CCNG1
T11 chain: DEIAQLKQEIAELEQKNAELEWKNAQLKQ

[12] = molecular target: T12, 4H687-bA; assay: two-hybrid library CCNG1
T12 chain: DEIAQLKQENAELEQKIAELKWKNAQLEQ

[13] = molecular target: T13, 4H462-bA; assay: two-hybrid library CCNG1
T13 chain: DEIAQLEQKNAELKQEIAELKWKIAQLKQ

[14] = molecular target: T14, O5-bS; assay: two-hybrid library CCNG1
T14 chain: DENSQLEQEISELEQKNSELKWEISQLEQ

[15] = molecular target: T15, O6-bS; assay: two-hybrid library CCNG1
T15 chain: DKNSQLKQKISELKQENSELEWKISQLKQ

[16] = molecular target: T16, O9-bS; assay: two-hybrid library CCNG1
T16 chain: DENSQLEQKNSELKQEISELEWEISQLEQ

[17] = molecular target: T17, O7-bS; assay: two-hybrid library CCNG1
T17 chain: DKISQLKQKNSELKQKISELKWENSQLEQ

[18] = molecular target: T18, O8-bS; assay: two-hybrid library CCNG1
T18 chain: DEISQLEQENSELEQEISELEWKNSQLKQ

[19] = molecular target: T19, 4H730-bA; assay: two-hybrid library CCNG1
T19 chain: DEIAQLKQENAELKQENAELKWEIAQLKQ

[20] = molecular target: T20, P8A; assay: two-hybrid library CCNG1
T20 chain: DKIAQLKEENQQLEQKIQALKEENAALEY

[21] = molecular target: T21, 4H932-bA; assay: two-hybrid library CCNG1
T21 chain: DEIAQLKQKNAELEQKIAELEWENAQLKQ

[22] = molecular target: T22, 4H349-bA; assay: two-hybrid library CCNG1
T22 chain: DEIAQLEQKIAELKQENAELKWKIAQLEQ

[23] = molecular target: T23, 4H796-bA; assay: two-hybrid library CCNG1
T23 chain: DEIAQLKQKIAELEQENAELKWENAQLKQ

[24] = molecular target: T24, 4H56-bA; assay: two-hybrid library CCNG1
T24 chain: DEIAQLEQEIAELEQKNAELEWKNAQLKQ

[25] = molecular target: T25, 4H3364-bA; assay: two-hybrid library CCNG1
T25 chain: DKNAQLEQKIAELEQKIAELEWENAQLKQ

[26] = molecular target: T26, 4H949-bA; assay: two-hybrid library CCNG1
T26 chain: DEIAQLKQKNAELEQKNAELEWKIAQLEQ

[27] = molecular target: T27, 4H3381-bA; assay: two-hybrid library CCNG1
T27 chain: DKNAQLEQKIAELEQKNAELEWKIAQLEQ

[28] = molecular target: T28, 4H3277-bA; assay: two-hybrid library CCNG1
T28 chain: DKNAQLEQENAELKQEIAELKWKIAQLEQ

[29] = molecular target: T29, 4H741-bA; assay: two-hybrid library CCNG1
T29 chain: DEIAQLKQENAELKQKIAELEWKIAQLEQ

[30] = molecular target: T30, 4H2839-bA; assay: two-hybrid library CCNG1
T30 chain: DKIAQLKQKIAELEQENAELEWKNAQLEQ

[31] = molecular target: T31, 4H492-bA; assay: two-hybrid library CCNG1
T31 chain: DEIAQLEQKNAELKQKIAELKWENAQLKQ

[32] = molecular target: T32, 4H3057-bA; assay: two-hybrid library CCNG1
T32 chain: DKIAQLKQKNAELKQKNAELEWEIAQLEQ

[33] = molecular target: T33, 4H40-bA; assay: two-hybrid library CCNG1
T33 chain: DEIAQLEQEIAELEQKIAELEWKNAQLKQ

[34] = molecular target: T34, 4H2915-bA; assay: two-hybrid library CCNG1
T34 chain: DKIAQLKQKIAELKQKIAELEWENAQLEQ

[35] = molecular target: T35, 4H2717-bA; assay: two-hybrid library CCNG1
T35 chain: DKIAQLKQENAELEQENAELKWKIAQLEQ

[36] = molecular target: T36, 4H348-bA; assay: two-hybrid library CCNG1
T36 chain: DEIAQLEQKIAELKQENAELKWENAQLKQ

[37] = molecular target: T37, 4H477-bA; assay: two-hybrid library CCNG1
T37 chain: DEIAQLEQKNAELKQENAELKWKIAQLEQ

[38] = molecular target: T38, P9A; assay: two-hybrid library CCNG1
T38 chain: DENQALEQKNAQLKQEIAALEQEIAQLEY

[39] = molecular target: T39, 4H2774-AA; assay: two-hybrid library CCmax; conditions: mean of both orientations
T39 chain: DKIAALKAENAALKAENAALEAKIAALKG

[40] = molecular target: T40, 4H380-AA; assay: two-hybrid library CCmax; conditions: mean of both orientations
T40 chain: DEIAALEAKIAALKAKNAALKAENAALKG

[41] = molecular target: T41, 4H2903-AA; assay: two-hybrid library CCmax; conditions: mean of both orientations
T41 chain: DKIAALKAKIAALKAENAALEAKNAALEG

[42] = molecular target: T42, 4H3915-AA; assay: two-hybrid library CCmax; conditions: mean of both orientations
T42 chain: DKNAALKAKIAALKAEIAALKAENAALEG

[43] = molecular target: T43, 4H432-AA; assay: two-hybrid library CCmax; conditions: mean of both orientations
T43 chain: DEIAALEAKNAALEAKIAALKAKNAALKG

[44] = molecular target: T44, 4H446-AA; assay: two-hybrid library CCmax; conditions: mean of both orientations
T44 chain: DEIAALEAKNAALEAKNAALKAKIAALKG

[45] = molecular target: T45, 4H2621-AA; assay: two-hybrid library CCmax; conditions: mean of both orientations
T45 chain: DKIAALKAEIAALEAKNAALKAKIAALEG

[46] = molecular target: T46, 4H341-AA; assay: two-hybrid library CCmax; conditions: mean of both orientations
T46 chain: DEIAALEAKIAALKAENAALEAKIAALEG

[47] = molecular target: T47, 4H3777-AA; assay: two-hybrid library CCmax; conditions: mean of both orientations
T47 chain: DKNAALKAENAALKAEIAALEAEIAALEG

[48] = molecular target: T48, 4H3619-AA; assay: two-hybrid library CCmax; conditions: mean of both orientations
T48 chain: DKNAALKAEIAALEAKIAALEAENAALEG

[49] = molecular target: T49, 4H2760-AA; assay: two-hybrid library CCmax; conditions: mean of both orientations
T49 chain: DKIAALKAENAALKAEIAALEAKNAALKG

[50] = molecular target: T50, 4H3974-AA; assay: two-hybrid library CCmax; conditions: mean of both orientations
T50 chain: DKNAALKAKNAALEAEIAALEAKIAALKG

[51] = molecular target: T51, 4H63-AA; assay: two-hybrid library CCmax; conditions: mean of both orientations
T51 chain: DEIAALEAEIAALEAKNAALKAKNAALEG

[52] = molecular target: T52, 4H324-AA; assay: two-hybrid library CCmax; conditions: mean of both orientations
T52 chain: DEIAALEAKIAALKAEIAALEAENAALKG

[53] = molecular target: T53, 4H3449-AA; assay: two-hybrid library CCmax; conditions: mean of both orientations
T53 chain: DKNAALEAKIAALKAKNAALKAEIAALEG

[54] = molecular target: T54, 4H2604-AA; assay: two-hybrid library CCmax
T54 chain: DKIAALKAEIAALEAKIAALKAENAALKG

[55] = molecular target: T55, 4H2947-AA; assay: two-hybrid library CCmax; conditions: mean of both orientations
T55 chain: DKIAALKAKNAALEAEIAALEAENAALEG

[56] = molecular target: T56, 4H3094-AA; assay: two-hybrid library CCmax; conditions: mean of both orientations
T56 chain: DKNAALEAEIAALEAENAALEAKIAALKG

[57] = molecular target: T57, 4H3629-AA; assay: two-hybrid library CCmax; conditions: mean of both orientations
T57 chain: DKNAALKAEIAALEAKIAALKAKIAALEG

[58] = molecular target: T58, 4H3049-AA; assay: two-hybrid library CCmax; conditions: mean of both orientations
T58 chain: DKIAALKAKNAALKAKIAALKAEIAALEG

[59] = molecular target: T59, 4H2961-AA; assay: two-hybrid library CCmax; conditions: mean of both orientations
T59 chain: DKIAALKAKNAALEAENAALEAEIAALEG

[60] = molecular target: T60, 4H319-bA; assay: two-hybrid library CCNG1
T60 chain: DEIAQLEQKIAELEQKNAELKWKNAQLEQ

B1: 4H462-bA (peptide)
chain: DEIAQLEQKNAELKQEIAELKWKIAQLKQ
interaction score [1]: 1.7
interaction score [2]: -1.19
interaction score [3]: -1.06
interaction score [4]: -0.0789
interaction score [5]: 0.312
interaction score [6]: 0.676
interaction score [7]: -2.87
interaction score [8]: -0.872
interaction score [9]: -0.0392
interaction score [10]: -0.251
interaction score [11]: -0.962
interaction score [12]: 0.993
interaction score [13]: 1.24

B4: 4H2717-bA (peptide)
chain: DKIAQLKQENAELEQENAELKWKIAQLEQ
interaction score [28]: -0.874
interaction score [29]: -1.48
interaction score [30]: -0.857
interaction score [31]: -1.39
interaction score [32]: 1.23
interaction score [33]: -1.55
interaction score [34]: -0.721
interaction score [35]: 1.02
interaction score [36]: -1.06
interaction score [37]: 0.776

B6: 4H2604-AA (peptide)
chain: DKIAALKAEIAALEAKIAALKAENAALKG
interaction score [39]: -1.79
interaction score [40]: 1.01
interaction score [41]: -0.407
interaction score [42]: 0.216
interaction score [43]: -1.37
interaction score [44]: -1.79
interaction score [45]: -0.139
interaction score [46]: 0.155
interaction score [47]: -1.38
interaction score [48]: -0.188
interaction score [49]: -1.02
interaction score [50]: -0.774
interaction score [51]: -1.37
interaction score [52]: 2.07
interaction score [53]: -0.758
interaction score [54]: 1.78
interaction score [55]: -1.68
interaction score [56]: -1.23
interaction score [57]: 1.84
interaction score [58]: -0.492
interaction score [59]: -1.69

B7: 4H2839-bA (peptide)
chain: DKIAQLKQKIAELEQENAELEWKNAQLEQ
interaction score [28]: -0.969
interaction score [29]: -0.816
interaction score [30]: 0.104
interaction score [60]: 1.61
interaction score [31]: -0.582
interaction score [32]: -0.0141
interaction score [33]: 1.35
interaction score [34]: -0.223
interaction score [36]: -0.533
interaction score [37]: -0.768

Now from value to binder:

interaction score [14]: -1.98
interaction score [15]: 2.08
interaction score [16]: -0.729
interaction score [17]: -1.98
interaction score [18]: -1.34
B2: O5-bS (peptide)
chain: DENSQLEQEISELEQKNSELKWEISQLEQ

interaction score [19]: 0.124
interaction score [20]: -0.26
interaction score [21]: -0.586
interaction score [22]: -1.53
interaction score [23]: 0.137
interaction score [24]: 0.349
interaction score [25]: 1.01
interaction score [26]: -1.22
interaction score [27]: -0.647
B3: 4H3364-bA (peptide)
chain: DKNAQLEQKIAELEQKIAELEWENAQLKQ

interaction score [20]: -1.27
interaction score [38]: -1.56
B5: P8A (peptide)
chain: DKIAQLKEENQQLEQKIQALKEENAALEY
